Assay results taken from patent publication US20200024330A1.

Key:
[1] = molecular target: HIV-1 Env of isolate 92TH021 (HIV-1); assay: cell-based or functional assay
[2] = molecular target: HIV-1 JR-CSF Env T388A (HIV-1 (isolate JR-CSF)) (UniProt P20871); assay: cell-based or functional assay
[3] = molecular target: Env of the clade A HIV-1 pseudoviruses of the cross-clade 162-pseudovirus panel (n = 26); assay: cell-based or functional assay
[4] = molecular target: HIV-1 JR-CSF Env T303A (HIV-1 JR-CSF) (UniProt P20871); assay: cell-based or functional assay
[5] = molecular target: HIV-1 JR-CSF Env K305A (HIV-1 JR-CSF) (UniProt P20871); assay: cell-based or functional assay
[6] = molecular target: HIV-1 JR-CSF Env P299A (HIV-1 JR-CSF) (UniProt P20871); assay: cell-based or functional assay
[7] = molecular target: Env of the clade F HIV-1 pseudoviruses of the cross-clade 162-pseudovirus panel (n = 15); assay: cell-based or functional assay
[8] = molecular target: HIV-1 JR-CSF Env W395A (HIV-1 (isolate JR-CSF)) (UniProt P20871); assay: cell-based or functional assay
[9] = molecular target: HIV-1 JR-CSF Env I420A (HIV-1 (isolate JR-CSF)) (UniProt P20871); assay: cell-based or functional assay
[10] = molecular target: HIV-1 Env of isolate 93UG077 (HIV-1); assay: cell-based or functional assay
[11] = molecular target: HIV-1 JRCSF envelope glycoprotein (Env) (HIV-1) (UniProt P20871); assay: cell-based or functional assay
[12] = molecular target: HIV-1 JR-CSF Env I414A (HIV-1 (isolate JR-CSF)) (UniProt P20871); assay: cell-based or functional assay
[13] = molecular target: HIV-1 JR-CSF Env T320A (HIV-1 isolate JR-CSF) (UniProt P20871); assay: cell-based or functional assay
[14] = molecular target: HIV-1 Env of isolate MGRM-A-008 (HIV-1); assay: cell-based or functional assay
[15] = molecular target: HIV-1 JR-CSF Env T341A (HIV-1 isolate JR-CSF) (UniProt P20871); assay: cell-based or functional assay
[16] = molecular target: HIV-1 JR-CSF Env N396A (HIV-1 (isolate JR-CSF)) (UniProt P20871); assay: cell-based or functional assay
[17] = molecular target: Env of the clade G HIV-1 pseudoviruses of the cross-clade 162-pseudovirus panel (n = 15); assay: cell-based or functional assay
[18] = molecular target: HIV-1 JR-CSF Env S393A (HIV-1 (isolate JR-CSF)) (UniProt P20871); assay: cell-based or functional assay
[19] = molecular target: HIV-1 JR-CSF Env N411A (HIV-1 (isolate JR-CSF)) (UniProt P20871); assay: cell-based or functional assay
[20] = molecular target: HIV-1 JR-CSF Env D417A (HIV-1 (isolate JR-CSF)) (UniProt P20871); assay: cell-based or functional assay
[21] = molecular target: HIV-1 JR-CSF Env N301A (HIV-1 JR-CSF) (UniProt P20871); assay: cell-based or functional assay
[22] = molecular target: HIV-1 JR-CSF Env N339A (HIV-1 isolate JR-CSF) (UniProt P20871); assay: cell-based or functional assay
[23] = molecular target: HIV-1 JR-CSF Env T202A (HIV-1 JR-CSF) (UniProt P20871); assay: cell-based or functional assay
[24] = molecular target: HIV-1 Env of isolate 92RW008 (HIV-1); assay: cell-based or functional assay
[25] = molecular target: HIV-1 JR-CSF Env S199A (HIV-1 JR-CSF) (UniProt P20871); assay: cell-based or functional assay
[26] = molecular target: HIV-1 Env of isolate 92WR020 (HIV-1); assay: cell-based or functional assay
[27] = molecular target: HIV-1 JR-CSF Env I309A (HIV-1 JR-CSF) (UniProt P20871); assay: cell-based or functional assay
[28] = molecular target: HIV-1 JR-CSF Env T413A (HIV-1 (isolate JR-CSF)) (UniProt P20871); assay: cell-based or functional assay
[29] = molecular target: HIV-1 JR-CSF Env S334A (HIV-1 isolate JR-CSF) (UniProt P20871); assay: cell-based or functional assay
[30] = molecular target: HIV-1 JR-CSF Env I326A (HIV-1 isolate JR-CSF) (UniProt P20871); assay: cell-based or functional assay
[31] = molecular target: HIV-1 NL43 envelope glycoprotein (Env) (HIV-1); assay: cell-based or functional assay
[32] = molecular target: HIV-1 Env of isolate MGRM-A-006 (HIV-1); assay: cell-based or functional assay
[33] = molecular target: HIV-1 JR-CSF Env T394A (HIV-1 (isolate JR-CSF)) (UniProt P20871); assay: cell-based or functional assay
[34] = molecular target: HIV-1 Env of isolate MGRM-A-004 (HIV-1); assay: cell-based or functional assay
[35] = molecular target: HIV-1 JR-CSF Env I323A (HIV-1 isolate JR-CSF) (UniProt P20871); assay: cell-based or functional assay
[36] = molecular target: HIV-1 JR-CSF Env K343A (HIV-1 isolate JR-CSF) (UniProt P20871); assay: cell-based or functional assay
[37] = molecular target: HIV-1 JR-CSF Env S306A (HIV-1 JR-CSF) (UniProt P20871); assay: cell-based or functional assay
[38] = molecular target: HIV-1 Env of isolate CMU02 (HIV-1); assay: cell-based or functional assay
[39] = molecular target: HIV-1 JRFL envelope glycoprotein (Env) (HIV-1); assay: cell-based or functional assay
[40] = molecular target: HIV-1 MGRM-A-010 envelope glycoprotein (Env) (HIV-1); assay: cell-based or functional assay
[41] = molecular target: WT JR-FL gp120 (HIV-1 (isolate JR-FL)); assay: ELISA on coated gp120; EC50 by nonlinear regression
[42] = molecular target: JR-FL gp120 ΔV1/ΔV2 (HIV-1 (isolate JR-FL)); assay: as above

B1: PGT-123 (antibody, V domains shown)
VH: QLHLQESGPGLVKPPETLSLTCSVSGASINDAYWSWIRQSPGKRPEWVGYVHHSGDTNYNPSLKRRVTFSLDTAKNEVSLKLVDLTAADSATYFCARALHGKRIYGIVALGELFTYFYMDVWGKGTAVTVSS
VL: SSMSVSPGETAKISCGKESIGSRAVQWYQQKPGQPPSLIIYNNQDRPAGVPERFSASPDFRPGTTATLTITNVDAEDEADYYCHIYDARGGTNWVFDRGTTLTVL
IC50 (µg/mL), pseudovirus neutralization [1]: > 50 µg/mL
Fold IC50 increase relative to wild-type [2]: 0.2 fold
Median IC50 against viruses neutralized with an IC50 <50 µg/ml [3]: 0.02 µg/mL
Fold IC50 increase relative to wild-type [4]: 1.1 fold
Fold IC50 increase relative to wild-type [5]: 1.9 fold
Fold IC50 increase relative to wild-type [6]: 0.7 fold
Median IC50 against viruses neutralized with an IC50 <50 µg/ml [7]: 0.09 µg/mL
Fold IC50 increase relative to wild-type [8]: 0.4 fold
Fold IC50 increase relative to wild-type [9]: 3.2 fold
IC50 (µg/mL), pseudovirus neutralization [10]: 0.028 µg/mL
IC50 neutralization [11]: 0.0423 µg/mL
Fold IC50 increase relative to wild-type [12]: 0.3 fold
Fold IC50 increase relative to wild-type [13]: 0.7 fold
IC50 (µg/mL), pseudovirus neutralization [14]: > 50 µg/mL
Fold IC50 increase relative to wild-type [15]: 0.3 fold
Fold IC50 increase relative to wild-type [16]: 1.2 fold
Median IC50 against viruses neutralized with an IC50 <50 µg/ml [17]: 0.04 µg/mL
Fold IC50 increase relative to wild-type [18]: 0.6 fold
Fold IC50 increase relative to wild-type [19]: 0.5 fold
Fold IC50 increase relative to wild-type [20]: 0.7 fold
Fold IC50 increase relative to wild-type [21]: 1 fold
Fold IC50 increase relative to wild-type [22]: 0.8 fold
Fold IC50 increase relative to wild-type [23]: 1.2 fold
IC50 (µg/mL), pseudovirus neutralization [24]: 0.003 µg/mL
Fold IC50 increase relative to wild-type [25]: 1.1 fold
IC50 (µg/mL), pseudovirus neutralization [26]: 0.002 µg/mL
Fold IC50 increase relative to wild-type [27]: 1.6 fold
Fold IC50 increase relative to wild-type [28]: 0.4 fold
Fold IC50 increase relative to wild-type [29]: > 50 fold
Fold IC50 increase relative to wild-type [30]: 0.4 fold
IC50 neutralization [31]: > 10 µg/mL
IC50 (µg/mL), pseudovirus neutralization [32]: > 50 µg/mL
Fold IC50 increase relative to wild-type [33]: 0.4 fold
IC50 (µg/mL), pseudovirus neutralization [34]: > 50 µg/mL
Fold IC50 increase relative to wild-type [35]: 1 fold
Fold IC50 increase relative to wild-type [36]: 0.3 fold
Fold IC50 increase relative to wild-type [37]: 0.5 fold
IC50 (µg/mL), pseudovirus neutralization [38]: > 50 µg/mL
IC50 neutralization [39]: 0.0283 µg/mL
IC50 neutralization [40]: 0.492 µg/mL
EC50 [41]: 0.2 µg/mL
EC50 [42]: 0.3 µg/mL
